Here are results for one substance from patent US20230072897A1, “ANTI-B7-H4 ANTIBODY-DRUG CONJUGATE AND MEDICINAL USE THEREOF” (SHANGHAI HANSOH BIOMEDICAL CO., LTD., priority 2019, published 2023).

The target of the test is human B7-H4 on MX-1 cells (human) (UniProt Q7Z7D3). Description: cell-based or functional assay.
Chain of UniProt Q7Z7D3 (Q7Z7D3 25-282): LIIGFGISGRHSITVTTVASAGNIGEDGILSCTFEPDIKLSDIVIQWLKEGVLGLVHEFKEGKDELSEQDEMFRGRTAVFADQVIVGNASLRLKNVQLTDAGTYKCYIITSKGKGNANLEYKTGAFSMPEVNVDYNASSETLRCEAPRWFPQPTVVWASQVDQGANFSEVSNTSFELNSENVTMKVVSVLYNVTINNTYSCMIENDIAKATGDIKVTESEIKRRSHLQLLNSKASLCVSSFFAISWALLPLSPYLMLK

Regarding IgG control (antibody), the Humanized antibody-mediated endocytosis efficiency of B7-H4 protein, 0 hour (%) worked out at 0%; the Humanized antibody-mediated endocytosis efficiency of B7-H4 protein, 0.5 hour (%) is 0.1%; the Humanized antibody-mediated endocytosis efficiency of B7-H4 protein, 2 hours (%) was 0.9%.
